Data published in US20070110760A1.

Target: Syk kinase (endogenous, in cell lysates) (not stated (endogenous in murine NMuMG cells and in Bal-17 B cells)) (UniProt P48025)
Assay: co-immunoprecipitation in the presence of tyrosine phosphatase inhibitors, NMuMG lysates, three independent experiments

Chain of Syk kinase (endogenous, in cell lysates) (not stated (endogenous in murine NMuMG cells and in Bal-17 B cells)) (P48025 whole entry): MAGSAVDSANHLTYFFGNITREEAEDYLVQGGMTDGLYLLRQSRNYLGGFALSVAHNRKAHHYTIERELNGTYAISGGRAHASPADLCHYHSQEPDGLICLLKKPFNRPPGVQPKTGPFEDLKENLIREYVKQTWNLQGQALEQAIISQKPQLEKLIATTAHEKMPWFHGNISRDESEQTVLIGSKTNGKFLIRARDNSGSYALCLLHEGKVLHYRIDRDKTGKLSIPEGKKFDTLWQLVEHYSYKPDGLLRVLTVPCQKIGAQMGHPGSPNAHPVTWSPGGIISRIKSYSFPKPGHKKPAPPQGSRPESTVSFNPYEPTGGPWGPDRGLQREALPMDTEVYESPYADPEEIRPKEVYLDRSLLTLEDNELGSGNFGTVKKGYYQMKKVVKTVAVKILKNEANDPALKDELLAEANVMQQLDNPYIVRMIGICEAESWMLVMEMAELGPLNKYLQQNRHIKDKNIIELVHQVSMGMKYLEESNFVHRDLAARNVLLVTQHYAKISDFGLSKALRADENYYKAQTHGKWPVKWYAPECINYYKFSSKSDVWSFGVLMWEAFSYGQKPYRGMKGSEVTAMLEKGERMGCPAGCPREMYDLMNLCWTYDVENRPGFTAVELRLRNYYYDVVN

MMTV Env surface unit (SU or gp52), unmutated envelope (from UniProt P03374 99-454)
percent of SU co-immunoprecipitated with Syk: < 34%
